Experimental data from the supplement of paper PMC10567573.

B1: ZNF263 (parent)
chain: PEASHLRFRRFRFQEAAGPREALS
B2: LOXL2 (parent)
chain: FSPDGPSRFRKAYKPEQPLVRLRG

Variants of: B1
Experiment: protein stability index of a GFP-peptide fusion (GPS, HEK-293T) (PSI 1-6); higher = more stable
Details: c terminus: a fixed tail appended
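Also: lentivirally expressed fusions sorted by FACS into six bins by GFP to DsRed ratio, PSI derived from sequencing read proportions per bin multiplied by bin number.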

Variant	protein stability index
SEASHLRFRRFRFQEAAGPREALS	3.74
FEASHLRFRRFRFQEAAGPREALS	3.44
CEASHLRFRRFRFQEAAGPREALS	1.96
VEASHLRFRRFRFQEAAGPREALS	1.85
DEASHLRFRRFRFQEAAGPREALS	2.65
EEASHLRFRRFRFQEAAGPREALS	2.97
QEASHLRFRRFRFQEAAGPREALS	2.79
REASHLRFRRFRFQEAAGPREALS	2.97
PEASHLRFRRFRFQLAAGPREALS	2.02
PEASHLRFRRFRFQSAAGPREALS	2.54
PEASHLRFRRFRFQYAAGPREALS	2.05
PEASHLRFRRFRFQGAAGPREALS	2.24
PEASHLRFRRFRFQDAAGPREALS	2.09
PEASKLRFRRFRFQEAAGPREALS	1.77
PEASMLRFRRFRFQEAAGPREALS	3.39
PEASILRFRRFRFQEAAGPREALS	1.91
PEASHLRFRRFRFQEAAEPREALS	3.44
PEASHLRFRRFRFQEAANPREALS	2.83
PEASHLRFRRFRFQEAAKPREALS	2.84
PEASHLRFRRFRFQEAAGPREANS	3.15
PEASHLRFRRFRFQEAAGCREALS	2.21
PEASHLRFRRFRFQEAAGRREALS	2.71
PEASHLRFRRFRFQEAAGDREALS	2.8
PEASHLRFRRFRFQEAAGMREALS	2.8
PEASHLRFRRFRFQEAAGQREALS	3.18
PEASHLRFRRFRFQEAAGYREALS	1.69
PEASHLRFRRFRFQEAAGLREALS	1.95

Variant	protein stability index
PEASHLRFYRFRFQEAAGPREALS	1.96
PEASHLRFKRFRFQEAAGPREALS	2.82
PEAYHLRFRRFRFQEAAGPREALS	2.83
PEASHLRFRRFRFQELAGPREALS	2.57
PEASHLRFRRFRFQEPAGPREALS	3.25
PEASHLRFRRFRFQEKAGPREALS	2.61
PEASHLRFRRFRFQEFAGPREALS	1.59
PEASHLRFRRFRFQEAAGPREHLS	2.57
PEASHLRFRRFRFQEAAGPREWLS	2.03
PEASHLRFRRFRFHEAAGPREALS	1.16
PEASHLRFRRFRFDEAAGPREALS	4.9
PEASHLRFRRFRFIEAAGPREALS	1.78
PEASHLRFRRFRFTEAAGPREALS	2.88
PEASHLRFRRFRFQEAAGPREALI	2.52
PEASHLRFRRFRFQEAAGPREALA	2.28
PEASHLRFRRFRFQEAAGPREALC	2.42
PEASHLRFRRFEFQEAAGPREALS	5.03
PEASHLRFRRFIFQEAAGPREALS	2.33
PEASHLRFRRFRFQEAAGPRHALS	2.84
PEASHLRFRRFRFQEAAGPRAALS	2.56
PEASHLQFRRFRFQEAAGPREALS	2.75
PEASHLNFRRFRFQEAAGPREALS	3.08
PEASHLMFRRFRFQEAAGPREALS	2.84
PEASHLTFRRFRFQEAAGPREALS	3.66
PEASHLVFRRFRFQEAAGPREALS	2.65
PEASHLRFRLFRFQEAAGPREALS	2.49
PEASHLRFRDFRFQEAAGPREALS	3.29

Variant	protein stability index
PEASHLRFRPFRFQEAAGPREALS	2.11
PSASHLRFRRFRFQEAAGPREALS	2.52
PKASHLRFRRFRFQEAAGPREALS	2.83
PEASHGRFRRFRFQEAAGPREALS	3.46
PEASHARFRRFRFQEAAGPREALS	3.3
PEASHCRFRRFRFQEAAGPREALS	2.6
PEASHLRFRRWRFQEAAGPREALS	2.67
PEASHLRFRRARFQEAAGPREALS	3.25
PEASHLRFRRFRFQEAAGPNEALS	2.99
PEASHLRFRRFRFQEAAGPDEALS	2.9
PEASHLRFRRFRFQEAAGPHEALS	2.4
PEASHLRFRRFRFQEAAGPMEALS	2.21
PEASHLRPRRFRFQEAAGPREALS	3.04
PEASHLRARRFRFQEAAGPREALS	3.28
PEASHLRSRRFRFQEAAGPREALS	3.21
PEASHLRFRRFRFQEAEGPREALS	3.34
PEASHLRFRRFRFQEATGPREALS	2.61
PEASHLRFRRFRFQEACGPREALS	2.14
PEASHLRFRRFRFQEAVGPREALS	2.55
PEASHLRFRRFRFQEALGPREALS	2.21
PEASHLRFRRFRFQEAFGPREALS	1.88
PETSHLRFRRFRFQEAAGPREALS	2.52
PEFSHLRFRRFRFQEAAGPREALS	2.8
PESSHLRFRRFRFQEAAGPREALS	2.59
PEESHLRFRRFRFQEAAGPREALS	2.82
PEGSHLRFRRFRFQEAAGPREALS	2.95

Variants of: B2
Experiment: as above
Details: c terminus: a fixed tail appended

Variant	protein stability index
FSPQGPSRFRKAYKPEQPLVRLRG	2.57
FSPEGPSRFRKAYKPEQPLVRLRG	2.44
FSPCGPSRFRKAYKPEQPLVRLRG	2.21
FSPVGPSRFRKAYKPEQPLVRLRG	2.38
FSPDGPSRFRKAYKPEQPLVRLRH	1.52
FSPDGPSRFRKAYKPEQPLVRLRV	2.73
FSPDGPSRFRKAYKPEQPLVRLRI	1.44
FSPDGPSRFRKAYKPEQPLVRLRE	1.91
FSPDGPSRFRKAYKPEQPLVRLRW	2.07
FSPDGPSRFRKAYKPEQTLVRLRG	1.42
FSPDGPSRFRKAYKPEQHLVRLRG	2.03
FSPDGPSRFRKAYKPEQDLVRLRG	2.04
FSPDGPSRFRKAYKPEQMLVRLRG	2
FSPDGPSRFRKAYKPEQVLVRLRG	2.06
FSPDGPSRFRKAYKPEQNLVRLRG	2.75
FSPDGPSRFRKAYKPEQSLVRLRG	1.8
FSPDGPSRFRKAYKPEQRLVRLRG	1.86
FSPDGPSRFRKAYKPEQCLVRLRG	1.52
FSPDGPSRRRKAYKPEQPLVRLRG	2.58
FSPDGPSRLRKAYKPEQPLVRLRG	2.01
FSPDGPSRTRKAYKPEQPLVRLRG	2.27
FSPDGPSRGRKAYKPEQPLVRLRG	3.03

Variant	protein stability index
FSPDGPSRFRKAYKPEQPLVRARG	2.32
FSPDGPSRFRKAYKPEQPLVRNRG	2.36
FSPDGPSRFRKAYKPEQPLVRVRG	1.54
FSPDGPSRFRKAYKPEQPLVRERG	1.68
FSPDGPSRFRKAYKPEQPLVRFRG	1.21
FSPDGPSRFRKAYKPEQPLVRTRG	2.26
KSPDGPSRFRKAYKPEQPLVRLRG	3.11
NSPDGPSRFRKAYKPEQPLVRLRG	3.98
TSPDGPSRFRKAYKPEQPLVRLRG	3.33
FSPDGPSRFRKAYKPEQPLMRLRG	2.05
FSPDGPSRFRKAYKPEQPLLRLRG	2
FGPDGPSRFRKAYKPEQPLVRLRG	2.11
FTPDGPSRFRKAYKPEQPLVRLRG	3.36
FQPDGPSRFRKAYKPEQPLVRLRG	1.22
FYPDGPSRFRKAYKPEQPLVRLRG	2.36
FSPDGPSRFRKAYKPEQPEVRLRG	2.34
FSPDGPSRFRKAYKPEQPAVRLRG	2.01
FSPDGPSRFRKAYKPEQPNVRLRG	1.22
FSPDGPSRFRKAYKPEQPYVRLRG	2.69
FSPDGPSRFRKAYKPEQPLVYLRG	1.86
FSPDGPSRFRKAYKPEQPLVSLRG	1.73
FSPDGPSRFRKAYKPEQPLVDLRG	2

Variant	protein stability index
FSPDGPSRFRKAYKPEQPLVILRG	2.57
FSPDGPSRFRKAYKPEQPLVALRG	1.65
FSPDGPNRFRKAYKPEQPLVRLRG	2.89
FSPDGPIRFRKAYKPEQPLVRLRG	2.58
FSPDGPERFRKAYKPEQPLVRLRG	2.01
FSPDGPHRFRKAYKPEQPLVRLRG	2.54
FSPDGPGRFRKAYKPEQPLVRLRG	2.2
FSPDGPQRFRKAYKPEQPLVRLRG	2.32
FSPDGPSRFRKAYKPLQPLVRLRG	2.74
FSPDGPSRFRKAYKPKQPLVRLRG	2.67
FSPDGPSRFRKAYKPSQPLVRLRG	2.72
FSPDGPSRFRKAYKPHQPLVRLRG	1.63
FSPDGPSRFRKAYKPEQPLVRLNG	1.29
FSPDGPSRFRKAYKPEQPLVRLGG	1.96
FSPDGPSRFRKAYKPEQPLVRLFG	1.97
FSPDGPSRFRKAYKPEQPLVRLTG	1.33
FSPDGPSRFRKAQKPEQPLVRLRG	2.38
FSPDGPSRFRKAMKPEQPLVRLRG	1.54
FSPDGPSRFRKARKPEQPLVRLRG	2.27
FSPDGPSRFRKALKPEQPLVRLRG	1.97
FSPDGPSRFRKAKKPEQPLVRLRG	2.77
FSPDGPSRFRKAEKPEQPLVRLRG	2.15

Variant	protein stability index
FSPDGPSRFRKAVKPEQPLVRLRG	3.86
FSPDGPSRFRKAPKPEQPLVRLRG	2.55
FSPDGPSRFRKACKPEQPLVRLRG	3.06
FSPDGPSRFRKAGKPEQPLVRLRG	2.06
FSKDGPSRFRKAYKPEQPLVRLRG	1.71
FSNDGPSRFRKAYKPEQPLVRLRG	1.73
FSFDGPSRFRKAYKPEQPLVRLRG	2.41
FSPDGPSRFRKAYKMEQPLVRLRG	2.79
FSPDGPSRFRKAYKCEQPLVRLRG	3.13
FSPDGPSRFRKAYKLEQPLVRLRG	3.53
FSPDGPSRFRKAYKKEQPLVRLRG	1.66
FSPDGPSRFRKAYKQEQPLVRLRG	1.7
FSPDGPSRFRIAYKPEQPLVRLRG	1.76
FSPDGPSRFRYAYKPEQPLVRLRG	2.6
FSPDGPSRFRVAYKPEQPLVRLRG	2.66
FSPDGPSRFRKAYKPERPLVRLRG	1.57
FSPDGPSRFRKAYKPESPLVRLRG	2.25
FSPDGPSRFRKAYKPEEPLVRLRG	4.03
FSPDGPSRFRKAYKPETPLVRLRG	1.5
FSPDGPSRFRKAYKPENPLVRLRG	1.4
FSPDGESRFRKAYKPEQPLVRLRG	2
FSPDGDSRFRKAYKPEQPLVRLRG	1.63

Variant	protein stability index
FSPDGISRFRKAYKPEQPLVRLRG	2.52
FSPDGHSRFRKAYKPEQPLVRLRG	3.98
FSPDGLSRFRKAYKPEQPLVRLRG	3.07
FSPDGTSRFRKAYKPEQPLVRLRG	1.88
FSPDGPSRFRKCYKPEQPLVRLRG	1.88
FSPDGPSRFRKIYKPEQPLVRLRG	3.12
FSPDGPSRFRKWYKPEQPLVRLRG	4.25
FSPDGPSRFRKTYKPEQPLVRLRG	2.59
FSPDGPSRFRKAYGPEQPLVRLRG	2.32
FSPDGPSRFRKAYNPEQPLVRLRG	2.35
FSPDGPSRFRKAYCPEQPLVRLRG	3.06
FSPDGPSWFRKAYKPEQPLVRLRG	3.95
FSPDGPSNFRKAYKPEQPLVRLRG	1.71
FSPDGPSAFRKAYKPEQPLVRLRG	2.89
FSPDGPSEFRKAYKPEQPLVRLRG	1.81
FSPDGPSGFRKAYKPEQPLVRLRG	2.02
FSPDGPSTFRKAYKPEQPLVRLRG	2.1
FSPDGPSVFRKAYKPEQPLVRLRG	2.88
FSPDGPSRFMKAYKPEQPLVRLRG	2.1
FSPDGPSRFDKAYKPEQPLVRLRG	2.2
